Test results: US20040170601A1, “Method of improving the growth performance of an animal” (priority 2001, published 2004)
Entries after “also recorded” stand apart in the source; their conditions may differ.

Key:
[1] = tested on: H. parasuis, APP and Swine dysentry; assay: Example 4: deaths and production loss from infectious disease; assay type: in vivo, pigs; details: for number of deaths during trial: 20 per group; for deaths (autopsy report summary) / production loss (deaths from infectious disease or weight loss): weaner period
Procedure: This trial evaluated the capacity of IL-5 to improve growth performance and immunity of pigs by comparing the growth rate and health of weaner pigs (28 day old weaners is Day 0 of the trial and the weaner period continued for 42 days) through to the finisher stage (Days 93 to 113) and slaughter (133 days after commencing the trial). The pigs were administered recombinant porcine cytokine, IL-5, and saline was used as a control, with and without standard weaner medicated water and feed in a commercial piggery environment.
40 pigs per treatment mixed in-groups of 20, with 4 replicates containing standard medicated water and feed and 4 replicates without medicated feed or water.
These are possibly a reflection of resistance to infections as all pigs were subjected to a severe exposure of pathogens (deaths occurred from H. parasuis “Glasser's”, APP and Swine dysentry).
The production loss in terms of deaths from infectious disease or weight loss as measured by weekly weighing is shown in FIG. 13. No deaths occurred in the IL-5 medicated group (FIG. 13), a factor that influenced the positive effect of IL-5 on increasing total group weight as described above (FIG. 10). The majority of deaths also included prior weight loss, but were recorded as deaths only. The antibiotic medicated groups had reduced numbers of pigs that lost weight during 1 or more weeks during the weaner period compared to the un-medicated groups. The first week after weaning was where the majority (>80%) of pigs lost weight.

eosinophils [2] = assay: Example 4: % eosinophils of WBC in blood; assay type: in vivo, pigs; details: blood the day after treatment, end of weaner period
Excerpt: Blood and sera samples collected at the start (before treatments) and end of the weaner period. Blood and sera were taken prior to injecting samples.
Blood was taken the day after IL-5 and saline treatments and represent a single time point only. […] As a general observation IL-5 plus medication had higher eosinophils numbers than the IL-5 without antibiotics.

[3] = Example 5: production loss during outbreak of post weaning scours; assay type: in vivo, pigs; details: normal antibiotics, 2 days into weaner period
Excerpt: (§1) Unfortunately, a severe outbreak of post weaning scours affected all treatment groups. The most likely cause of the scours was E. coli. […] FIG. 25 compares the average weights of the saline controls, with and without antibiotics, from this experiment and the previous experiment. […] The infectious disease (scours) affected the un-medicated saline group at an earlier stage than the medicated group.
(§2) Weights were taken from the start to the end of the weaner period. […] This benefit was also reflected in the production loss as measured by deaths from infectious disease, or weight loss over any given week during the weaner period (FIG. 29).
(§3) All other deaths were a result of scours. Weight loss was defined as one or more weekly weight reductions of individual pigs. […] Antibiotic supplements also lessened production loss. Weight loss could have also been a result of stress, especially at the time of weaning when pigs are removed from sows, transported, mixed in different social groups and fed dry food. […] The higher average weights were presumably due to reduced severity of disease and associated weight loss. […] The pattern of higher average weight gains in IL-5 treated pigs was repeated with the reduced level and normal level of antibiotic supplementation (FIG. 31 and FIG. 32 respectively). […]

E. coli = assay: as above; assay type: in vivo, pigs; details: vs respective saline controls
Excerpt: as §1, §2, §3

eosinophils [4] = assay: Example 5: haematology, eosinophil levels; design: species or system pigs; details: pig, in vivo
Procedure: Pigs were weaned and weighted at the start of the experiment (D0, W0) and weekly until the end of the weaner period (W6), at the end of the grower (W13) and finisher (W19) stages and once during the grower (W9) and finisher (W16) stages. Blood and sera samples were collected at the start (before treatments) and end of the weaner, grower and finisher periods. Blood and sera were taken prior to treatment injection. Haematology (totals and differentials) was performed.
Haematology and differentials were undertaken at various time points during the trial. There were no significant changes between groups for these parameters except for eosinophil levels (FIG. 41).

eosinophils [5] = assay: Example 11: IL-5 and IL-3 on eosinophil production; assay type: in vivo, pigs
Excerpt: The aim of this example was to determine if the effects of IL-3 and IL-5 act synergistically to increase eosinophil levels and antibody production.
As IL-3 stimulates the proliferation of pre-active B cells prior to the effects of IL-5, it was believed that administration of both IL-3 and IL-5 would have a greater impact on eosinophil production than the administration of either cytokine alone. An experiment was undertaken using pigs raised under clean PC2 conditions with raised floors. There were 5 treatments with 6 pigs per treatment. Pigs were 5-6 weeks of age. The animals were injected intramuscularly on days 0, 3, 7 and 10 of the experiment with either recombinant cytokines or saline. The treatments include IL-5 and IL-3 alone and given either together at the same time at different sites or to the same animal but with IL-3 being administered one week before IL-5. The treatments were as follows:
Group 3—100 μg IL-3+100 μg IL-5 (separate sites)
The pigs were bled 4 times per week for the first 2 weeks and once per week for the following 2 weeks and haematology measured using a CellDyn machine. Sera were collected also each week and tested for antibody levels.

B1: interleukin 5 (protein, UniProt Q9MYM5 22-134, looked up)
Interleukin-5: VENTMNRLVAETLTLLSIHRTLLIGDGNLMISTPVHTNHQLCIEEVFQGIDTLKNQTARGDAVEKLFQNLSLIKEYIDRQKKNCGGERWRVTQFLDYLQVFLGVINTEWTMES
notes: recombinant porcine IL-5 protein expressed in E. coli; + / − = with / without antibiotic medicated feed and water, +p = weaner period only
number of deaths during trial ([1]; Final (Day 133), medicated): 0
number of deaths during trial ([1]; Final (Day 133), un-medicated): 3
number of deaths during trial ([1]; Weaner (Day 42), medicated): 0
number of deaths during trial ([1]; Weaner (Day 42), un-medicated): 2
condition and health of pigs ([1]; medicated): excellent condition and health compared to other groups
deaths (autopsy report summary) ([1]; medicated): No deaths or intervention
production loss (deaths from infectious disease or weight loss) ([1]; medicated): no pig from the medicated IL-5 treatment group lost weight or died from infectious disease
production loss (deaths from infectious disease or weight loss) ([1]; un-medicated): reduced production loss
deaths (autopsy report summary) ([1]; unmedicated): 2x H. parasuis
% eosinophil cells of WBC (eosinophils [2]): substantial effect on % eosinophil cells of WBC in both the medicated and un-medicated groups
deaths [3]: H. parasuis deaths occurred
production loss (deaths from infectious disease or weight loss), weaner period (E. coli): less production loss compared to their respective saline controls
levels of eosinophils in blood (absolute numbers and differentials) (eosinophils [4]): significantly increased the levels of eosinophils in blood
eosinophil percentage of WBC relative to the original value (eosinophils [5]; after 4 injections): approximately 10 times
eosinophils as a percent of white blood cells (eosinophils [5]; single cytokine 100 μg IM days 0, 3, 7, 10): significant increase in eosinophil levels; also recorded: dramatically increased circulating eosinophil cells
